# This sample holds only a part of the variants without activity.
# B1: TPR 5TU (parent)
# chain: GGAUCUUCUCGAUCUAACAAAAAAGACAAAUCUGCCACAAAGCUUGAGAGCAUCUUCGGAUGCAGAGGCGGCAGCCUUCGGUGGCGCGAUAGCGCCAACGUUCUCAACUAUGACACGCAAAACGCGUGCUCCGUUGAAUGGAGUUUAUCAUG
# Variants of: B1
# Test: polymerase ribozyme fitness, log enrichment relative to wild type (log ratio); higher = more active; in vitro selection for triplet polymerase activity
# In short: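 The heterodimeric triplet polymerase ribozyme's subunits were each mutagenized into PCR-built libraries and transcribed. Every library was selected once, in triplicate, by annealing with a biotinylated primer, the partner subunit and triplets, incubating frozen at −7 °C, gel-excising extended constructs, capturing on streptavidin beads and running RT-PCR. Input and output libraries were Illumina-sequenced, with genotypes kept only at ≥10 input reads and ≥1 read per output. Fitness, from inverse-variance-weighted replicate averages, is the base-2 logarithm of genotype enrichment over wild-type enrichment.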
row,Variant,polymerase ribozyme fitness (log ratio)
1,A41G C54G U104A A119G G126U,-1.16
2,A41G U53A U56C C76A A98G,-1.92
3,A41C U56A C63A G83A,-0.629
4,G42A U61A G84C G133U U144G,≤ -4.2
5,A41U G133U U135A A142G A147U,≤ -4.2
6,A41C C87G G100C G126A A142C,≤ -4.2
7,G42A C85U,≤ -4.2
8,A41C C103A,-1.44
9,G42C G62C A73C G94U C118G A120U G133C,≤ -4.2
10,A41C G50A G86U A137C C149A,≤ -4.2
11,A41G G88A G143A,≤ -4.2
12,A41C C95G,-0.72
13,A41C C95U,-2.15
14,A41C C95A,-0.7
15,A41G G59A U61A,-0.462
16,G42A G50U U53A U55A G83A U90C U144A,≤ -4.2
17,A41G C54G G84A U148C,-3.53
18,A41C G92U A98G C123G G133C U134A G152U,≤ -4.2
19,A41C U56A U82A A150G,-1.45
20,A41U C54G G65C G84U G141A C149A,≤ -4.2
21,A41C C114U U127C,-3.96

row,Variant,polymerase ribozyme fitness (log ratio)
1,A41U G83A A150U,-0.63
2,G42A C87G,≤ -4.2
3,A41C C57A C96U U134C,-0.224
4,A41C C57A C96U,-0.533
5,G42C A60G,-4.05
6,G42C G62U A64C G71A C79G C132G U139G U146G,≤ -4.2
7,A41G U53C U55A U82G U127G,-4.02
8,A41C C116G,-0.175
9,A41C U56A A91G A97G A142U,-3.86
10,A41U G83U A150U,-1.02
11,A41C G48A,-1.3
12,G42A A49C C54U C95U C118U,≤ -4.2
13,A41C C79U G94U G100A C125A,-2.23
14,A41C C63U C76G C93A U127A,≤ -4.2
15,A41U A73U,-1.65
16,G42A C93A U102G U135A,≤ -4.2
17,A41C C85U C87U G133C G143A,-4.18
18,G42A G92A C96U A98G U151G,≤ -4.2
19,A41C U61A C76A A91U C99A A110U A150C,≤ -4.2
20,A41C C149A,-4.19
21,A41G C57G C76U G94A A110G C116G U139G,-4.11

row,Variant,polymerase ribozyme fitness (log ratio)
1,A41U G124A,-1.29
2,A41U G124U,-0.896
3,A41C G88A G92A A115U U151G,≤ -4.2
4,G42A G48A U102C C103A,≤ -4.2
5,A41U G83U G84U A98U A120U G124A,-3.95
6,A41G C93A G124U,-1.5
7,G42C U44G A49U U56C G94U U111C G143A,≤ -4.2
8,A41C G59A G94A A119C,-1.52
9,A41U C75A C93U,≤ -4.2
10,G42A A52G U61G G86A C114A,-3.88
11,A41C C95U A119G,-0.978
12,A41U U56A C93A A121U,-3.16
13,A41C U56G C76A C118G U134C,-3.21
14,A41C U53A U56A A66C C79G G84U,≤ -4.2
15,G42C C43U A91U C93G,≤ -4.2
16,G42A A89G C93U C125U G141U,≤ -4.2
17,A41C A137G C149U,-2.44
18,A41U U55A C85A A150U,-2.65
19,G42A G59A G92A G100A C125A U146C,≤ -4.2
20,A41G A52G C87U U144G U148G,-3.95
21,G42A U78G C116A C125G,≤ -4.2

row,Variant,polymerase ribozyme fitness (log ratio)
1,A41G G143U,-1.73
2,A41C G152U,-2.69
3,A41U A91U G140A,≤ -4.2
4,A41C G83A C116A,-0.205
5,A41C C54U A110G,-2.74
6,A41G G83C C99A,-2.03
7,A41C U45G U53A G83C A91U C93U A115G U144A,≤ -4.2
8,A41C U55A G94A G112U U134A,≤ -4.2
9,G42C G94C U111C,≤ -4.2
10,A41C C63G G92U,-0.619
11,A41C U53C G81C C114A A115U C123G,≤ -4.2
12,G42C U44G A106G,≤ -4.2
13,A41G A60U U130C,-0.614
14,A41C G81U G86U U104C,-1.73
15,A41U C93A A122G,-4.19
16,A41U C76U G88C U130C,≤ -4.2
17,A41C U61A A138U,-3.7
18,G42C C85U,-3.97
19,A41U G68C A91U U102C,≤ -4.2
20,A41U A120C C125A A142C,-4.12
